Where a chain is given by its changes, count along the chain named.
B1: 56 (protein)
chain: MAKIICLEEHYLDSELGRACMPVALEQAPFLGDWGKTVADGHNPDRSRPQIEKNALINAKGADLGSRRLRDMDEAGITLQILSVGGFPQLAPEDEAVTLNTAANDRLAEAVRNHPDRFAAFATLPWAQPKDAENELVRAVEKLGFKGALLNGRPSSCFLDHPDYDSLLSRFNKLNVPLYLHPGLPLKSVQQAYFTGFSAEVNARLSMFGWGWHHEAGIHLLRLMLSGAFDKYPNMQVISGHWGEMLPFWLQRLDDSLPLAATGLSRTLTRTFQEHVYVTPSGMLTLPHFKFIYELMGAERILFSVDYPYQTLDGVKTFIDSLPVNKAEKEAIAFRNAERLLGITA
modifications: Enterobacter aerogenes
B2: 52 (protein, listed as Streptomyces sp.)
chain: MAKIIALEEHFSDPAVAKAGAARAQALSPGFAASYSPASGLPYSPSPEVLENLAEKRLADMDAGGITMQVLSGLSAQTVPADVAPALVAGSNDKAAAAVRAHPDRFAAFAALPTAAPEAAVAELDRSVNELGFVGTLIMGRTEGEFLDAPRFEPILARAAALKVPVFLHPGVPPREITDSNYAAGLPTGIGTRLQTAAWGWHQETAVHFLHLVHSGVLDRYPDLQFILGHWGETIPFYLDRVDEALPQRATGLDRSFHEYFRENVYLAPSGMWSQAQLRFCLETFPLERIVFAVDYPFIGNEGAVPFLEKAELPEADKRKIAHENAERLLGL
B3: 54 (protein, listed as Streptomyces sp.)
chain: B2 chain with S75G, V128I, D223G, T234M, F285V
B4: 61 (protein, listed as Gordonia amarae)
chain: MATGAGSGVPSPADRVIVRSPGVIDVHAHAVLPMSLGCAGAAGPEIGYREDGSPFFRVGEYVLNGVRYEGSAFMDPEVRVAAMDAAGIGLQMISPNPITYFTRLDARSATDYARAHNDAIAEAAGRHPGRLVGAAQLPMQDVPAAIAELERSVRELGLVAAYIDTDIGDRTLDAPELDDFYSAAVELDVPVFIHPSPVGQEGPPDDTRLRRFDLDLLLGFSYDETLAVAALVFGGVLERHPALDVCLSHGGGTLAFVAGRFARAVAKPRAWVPEFLVENGIESYLRRLWLDTHVHSAGSLRLLIDTVGTDRLVFGTNFAGWDADGATEVDALGDLRETTTANAAHLLRLGRA
B5: 53 (protein, listed as Granulicella tundricola)
chain: MARTITLEEHFVTDSFLRATGAYDKPAPPWLAQLQPKLLDLGDGRIAAMDEAGIDLQVLSLAALGFDALDAATATPLVHDINDELAAAVRANPTRLAAFASLALKDPQSAARELERAIQKLGFRGVLLDGTTDGLFLDDPRFTPVFEAAVALNVPIYLHPAPPPESVFDTYFTGLPEGVGQMLSIAGWGWHAETALHTLRLITNGVFDRYPTLQLIIGHMGEMLPMALARTSKALSHAARLRQPVAAYFQSNIHLTTSGYFTQPPLRCALDVVGIDRLMFSIDYPFSANTLGRDYLTELEQTLTPEDLAKLIHRNAESLLNLS
B6: 62 (protein)
chain: MAVGGKNFRDVTDQVWCPKKRIEDMDREGVDIQVLSPIPVTFSYWAKPEEAESMARIQNDFIAETVLAYPDRFVGLGTVPMQDGETAIREMERCITELNLHGIEIGTNVNGKNLDDPSFIEFFRMAEKWQVPIFIHPWETLGRDRMPHHNFMYTVGMPSETALAAATLIWSGIMEKFPRLKVCFAHGGGSFPYILPRLDQGWKVWPHLRLTTHPPSYYAKKFYFDSLNYDPINLKYMIERFGHEKIFMGSDYPFLLREVDPGKVIDETASLSEEQKAAMLGGNAAEFLNIDIKKRGVAYAESTNT
modifications: Bacillus thuringiensis serovar pulsiensis
B7: 57 (protein)
chain: MAKLICVEEHVLDPAVGAATQSLVRAEAPYLPDWGSRVLDGRHVADRSRPHVIAPSESARKALEMGEPRLADMDAASIDMQVLSYGGFPQLLPAAQAIDLNRAANDKLALAAQAHPARFAGFATLPWQAPEAAARELERAVKQLGLKGALINGRPGDTFLDDARYAPILAAFDELKVPLYVHPGLPLPAVQAPYYGGFERELSARLAMFAWGWHNEAGIQVVRMLLAGVFDRHPRLQLISGHWGEMVPFFLQRLEDSIPQEASGLQRPIVQTYREHVYISPSGMFTLPHFQFIHALMGAQRILYSIDYPYQSLDGARAFIERLPISDTDKALIAHRNAERLLHL
modifications: Collimonas fungivorans
B8: 55 (protein, listed as Serratia sp.)
chain: MAKIICLEEHTLDKALVMASMPAALEQAPFLSDWGKTVTDGNLPDRSRPQIEKNDLINIKGADIGRGRLDDMDVAGITMQVLSVGGFPHLISAAEGVDLNRAANDRLADAVNAHPDRFAAFATLPWAQPDSAEKELERAVKELGFKGALLNGRPSTHFLDHPDYDGLLARFNALGVPLYLHPGLPVRSVQQAYYGGFSDEVTARLSMFGWGWHHEAGIHLLRLILSGAFDKYPNLQVISGHWGEMLPFWLQRLDDSLPQAATGLRRTIAQTFKEQVYVTPSGMLTLPHFQFIYALLGAERIIFSVDYPYQTLDGVKAFIQSLPVPEEAKEAIAFRNAERLLGLTS
B9: 2 (protein, listed as Serratia sp.)
chain: B8 chain
B10: 60 (protein, listed as Catenulispora acidiphila)
chain: MARGFVRTAVVPGFWDAGWRGAGQPGGMRVDVHAHLFPAAYLDLLDDFRQDGGVGTREVRALGGGDGERELRLRLAAMDAVGVDVQLLSTCPQGPYTGDPTAAVEAARCANVALAQTVAQYPERLRALAALPLPHILASVDELNRAMEQDGMLGAAVGTSILGRPLSHPDFEPLFAALNRRKGVLFVHPIGESAGSPLMQASKLDRVIGYAAEVSTAILQLFQAGLTVKYPDIRIIAPHMGGYLPFLIQRLDRHRDWYLPKDAPSAGQLMRGIAYDTANPLPAALRLTAEVVGPERLLLGTDYPFEQGPSLRDHIEYILAAGLPEAQAKMIVDVNAADFLDMRSGAEQPPV
B11: 58 (protein)
chain: MARVIALEEHYATTEFLRGPGTWLASRPGIVEPAGDLGDGRIAAMDQAGVDLAVLSLAAPGVEQLDPDDAVRLARDCNDQLAAAVRRYPDRLAGFATVPTSAPDRAADELERAVRGLGFPGAVINGHSRGRYLDDPFFEPVLARAAELQAPIYLHPTIPPAGVIESSYAGFAEPVTFALATVGWGWHINTATHALRMILGGVFDRHPSLQMIIGHMGEATSFMLPRFDATLKPELTGLNHPVSSYLRENFHYTFANFNDHATYANLVAQVGIERVAFSADYPFGSMVDARAFLDGLPLSDDERAAISHRNAEKLLGL
modifications: Mycobacterium colombiense
B12: 64 (protein, listed as Achromobacter piechaudii)
chain: MAIQKIDMHAHFFPPITRQEAAALDPVNAPWLRPDADGATGQIMAGEREFRPVDATLWDPALRIEQMDRHGVDVQILCATPIMFGYTYPARPAADWAARMNDLALEHCAYAPSRLKALAQVPLQDLELACQEASRARAAGHLGVQIGNHVGPRDLDDETLVQFLIHCANNDIPVLVHPWDMMTDGRMKKWMLPWLVSMPAETQLGILSLILSGAFERIPRSLKLCFAHGGGSFAYLLGRVDNAWRHRDIIRQDCPQLPSSYTDRFYTDSAVFDPRSLRLLIDVMGEDRVLLGSDYPYPLGEQEVGRLVAHAELVPEVQQKILFRNTMTFFGLQPGLQPGLQS
B13: 69 (protein, listed as Microbacterium testaceum)
chain: MATSTEGQDVTDVHAHLLMPGLHAEVERRVPDEVQAAADLELRRNGLASLQASGRMIGERFPRLTDVRARLAAMDEQGVDRQWVSPSPNHFYPWANEGLATWASGEANRLIAEHVALAPDRLVGLGVVPLQHPHLVVDALDDAVLGRGLAGVEISSFAGDVELSDERLESFWARAAELRAVVFLHPFGCSLDERLDRFYLSNTVGQPTENAVALSHLIFSGVLDRHPGLRLIAAHGGGYLPTAIGRSDRAWRVRPEARGCAHAPSTYLSKLWFDTVVHDERALRWLVEAAGADRVLLGSDFPFDMGLDDPVAFVRGAGLQDAEVSGILGGNAAELLRTRVHA
B14: 68 (protein, listed as Hoeflea phototrophica)
chain: MAIIDAHTHTLCPAVNEKVAGTIKPDSVPYQRDMSPESKEQDHTQFPELKIMFNQVERRLADMARMGIDRQVIAPAPGQQHYWAEPKLLAEISALQNDHVAELVARAPDRFAGIGTLPMTDPDAAVAEITRATRELGLRVFQIDSRVMERELSDASLDPIYAALEAAGAGLMIHPLGFSNGERLTPFFMVNSVAQPLEELLAFNHLVFGGVLDRFPKLKVYIAHGGGFAPFYIGRFDHAWKVRPEVNRLTPSAPSTYLRRIYFDTCVYRTDHIETLVRTVGADRVMLGSDYPFDMGDTDPLGLLNACQGLSDDEKATISSKVAIDFFGLET
B15: 59 (protein)
chain: MAPSVIDAHAHFLPGSLVTALRSRSDAPDIRTDSNGGESFGIYRTRMPYGRTYDALDVRLARMDELGVDRQILSLPGLFGIDSRPVSQALPLVRAFNDGVADLVRKHPDRFSGIAALPLADLDAAQEEYRRARGDLGLSGLILPGDTFVSVAAAERVRPLFELAATIGGLIFVHPGPLPDETGSAVDAPAPHTDSVVHRRVTVDIQNRMTEVMVTLALTDFLAPYPSVPVQVANLGGSLPFVIERMDHVYALRNPEAPPPSLSLRSLYVDAASLGPRAIALAAEVYGADRVLFGSDYPIFDDGRCLDAVRQTRLSPDARALIAGGNAARMLTQT
modifications: alpha proteobacterium

Assay: Saturation mutagenesis of SEQ ID NO:109: dicamba decarboxylation activity of point mutants (CO2 released), fold of backbone (Tables 7, 8, Megatable 1)
Details: decarboxylation activity (CO2 released) of point mutant vs unmutated backbone protein; backbone SEQ ID NO: 109

Molecule | Fold Activity [fold]
B1 | 1.3
B2 | 1.9
B3 | 1.4
B4 | 2.4
B5 | 1.6
B6 | 1
B7 | 2
B8 | 1.5
B9 | 1.1
B10 | 1.6
B11 | 1.5
B12 | 1.8
B13 | 1.3
B14 | 1.3
B15 | 0.9

Source: patent US20160040149A1, “Compositions Having Dicamba Decarboxylase Activity and Methods of Use” (priority 2013, published 2016)
